Tests used:
Western blot, mESCs = details: glycan lost; control: fSOX2-Tg mESCs
[1] = immunofluorescence, mESCs; details: glycan lost; control: fSOX2-Tg mESCs
[2] = label-free LC-MS of TAD peptide; details: glycan lost; control: fSOX2-Tg mESCs
[3] = FLAG immunofluorescence, MEFs day 6; details: glycan lost; control: OSFLAG-WTKM
[4] = Western blot and immunostaining, transduced MEFs; details: glycan lost; control: OSFLAG-WTKM

SOX2: S248A, sequence (chain, as listed by the source S248A): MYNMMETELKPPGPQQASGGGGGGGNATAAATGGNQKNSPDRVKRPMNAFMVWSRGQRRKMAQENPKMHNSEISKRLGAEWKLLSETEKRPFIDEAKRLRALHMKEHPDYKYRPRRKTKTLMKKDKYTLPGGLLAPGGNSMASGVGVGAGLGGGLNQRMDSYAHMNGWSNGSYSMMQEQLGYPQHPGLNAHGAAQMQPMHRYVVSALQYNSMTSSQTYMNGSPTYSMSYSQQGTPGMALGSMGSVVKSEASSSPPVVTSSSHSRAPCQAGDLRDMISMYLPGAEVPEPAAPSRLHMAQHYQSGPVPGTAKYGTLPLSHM

## SOX2: S248A
Western blot, mESCs
  expression_or_secretion: no change
[1]
  localisation_or_trafficking: no change
[2]
  other: phosphorylation at S253, other: % of total TAD peptide: increases, 18.7 vs 10.9
[3]
  localisation_or_trafficking: no change
[4]
  expression_or_secretion: no change
